Experimental data from patent publication US20090175789A1 (LFB BIOTECHNOLOGIES, published 2009).

Experiments:
[1] = biological target: T1, mouse LDL receptor (C2C12 cells) (mouse, UniProt P35951 22-862); test: flow cytometry on C2C12 cells, antibody at 30 µg/mL
T1 construct: whole, on cells; also called murine LDL-R
Procedure: (§1) The cross-reactivity of the anti-LDL-R antibodies was tested in the mouse (C2C12 cells), in the rat (YB2/0 cells), and in the hamster (CHO-K1 cells). The anti-LDL-R 12G4 antibodies were incubated at a final concentration of 30 μg/mL for 3 hours at 4° C. on C2C12, CHO-K1, and YB2/0 cells that had been cultured beforehand under LPDS conditions for 24 hours. The commercial 1C6 (anti-SREBP2, IgG) and C7 (anti-LDL-R, IgG2b) antibodies were used as negative and positive control antibodies, respectively. The detection of the bond was performed using an anti-IgG-PE antibody. The results were expressed as the percentage of fluorescent cells (FIG. 6A) and as mean fluorescence (FIG. 6B).

[2] = biological target: T2, rat LDL receptor (YB2/0 cells) (rat, UniProt P35952 22-879); test: flow cytometry on YB2/0 cells, antibody at 30 µg/mL
T2 construct: whole, on cells
Procedure: as §1

[3] = biological target: T3, hamster LDL receptor (CHO-K1 cells) (hamster, UniProt P35950 22-862); test: flow cytometry on CHO-K1 cells, antibody at 30 µg/mL
T3 construct: whole, on cells
Procedure: as §1

T2 sequence (P35952 22-879): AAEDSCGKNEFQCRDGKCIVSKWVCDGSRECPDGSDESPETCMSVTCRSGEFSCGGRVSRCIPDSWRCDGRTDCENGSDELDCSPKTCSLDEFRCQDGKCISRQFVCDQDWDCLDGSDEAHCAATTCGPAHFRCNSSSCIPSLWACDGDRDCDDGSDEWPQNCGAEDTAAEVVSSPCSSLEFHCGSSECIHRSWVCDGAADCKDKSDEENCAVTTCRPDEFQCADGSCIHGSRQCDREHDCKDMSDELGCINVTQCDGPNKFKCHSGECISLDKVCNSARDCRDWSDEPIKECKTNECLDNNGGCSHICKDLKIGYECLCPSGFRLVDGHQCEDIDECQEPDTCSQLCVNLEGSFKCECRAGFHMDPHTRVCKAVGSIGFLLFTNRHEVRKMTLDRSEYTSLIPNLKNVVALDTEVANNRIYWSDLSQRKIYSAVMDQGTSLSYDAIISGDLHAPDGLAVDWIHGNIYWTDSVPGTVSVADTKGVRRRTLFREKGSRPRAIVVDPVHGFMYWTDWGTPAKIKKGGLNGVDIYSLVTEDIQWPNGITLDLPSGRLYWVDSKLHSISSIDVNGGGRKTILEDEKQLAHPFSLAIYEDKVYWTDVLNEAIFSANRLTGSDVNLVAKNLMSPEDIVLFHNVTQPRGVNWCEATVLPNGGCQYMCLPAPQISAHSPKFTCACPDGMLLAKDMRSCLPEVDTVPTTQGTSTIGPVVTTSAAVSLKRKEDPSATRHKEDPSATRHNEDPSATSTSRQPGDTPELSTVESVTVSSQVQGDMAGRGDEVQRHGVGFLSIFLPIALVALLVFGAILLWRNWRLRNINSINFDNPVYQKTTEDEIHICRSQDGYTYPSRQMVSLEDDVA
T1 sequence (P35951 22-862): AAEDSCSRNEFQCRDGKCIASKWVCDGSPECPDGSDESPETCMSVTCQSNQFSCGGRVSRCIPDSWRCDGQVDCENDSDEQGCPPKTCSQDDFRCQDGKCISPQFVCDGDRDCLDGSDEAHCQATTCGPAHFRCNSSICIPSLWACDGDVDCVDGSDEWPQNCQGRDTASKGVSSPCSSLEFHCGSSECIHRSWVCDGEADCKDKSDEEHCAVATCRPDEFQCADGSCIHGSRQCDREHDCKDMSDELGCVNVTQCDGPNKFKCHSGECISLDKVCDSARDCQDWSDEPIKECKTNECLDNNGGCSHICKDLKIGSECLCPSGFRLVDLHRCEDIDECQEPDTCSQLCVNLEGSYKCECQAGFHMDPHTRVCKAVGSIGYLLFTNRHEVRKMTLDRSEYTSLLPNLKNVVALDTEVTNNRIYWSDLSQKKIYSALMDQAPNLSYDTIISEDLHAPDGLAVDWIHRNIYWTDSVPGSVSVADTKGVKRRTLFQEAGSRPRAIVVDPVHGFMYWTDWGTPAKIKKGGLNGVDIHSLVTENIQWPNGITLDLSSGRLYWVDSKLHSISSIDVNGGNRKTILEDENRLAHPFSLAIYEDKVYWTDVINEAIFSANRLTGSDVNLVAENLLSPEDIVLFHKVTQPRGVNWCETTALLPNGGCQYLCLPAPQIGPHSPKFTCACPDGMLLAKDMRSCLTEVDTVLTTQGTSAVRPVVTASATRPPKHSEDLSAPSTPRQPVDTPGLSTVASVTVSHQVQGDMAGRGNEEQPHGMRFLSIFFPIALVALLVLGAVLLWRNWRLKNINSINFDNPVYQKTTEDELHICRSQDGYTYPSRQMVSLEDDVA
T3 sequence (P35950 22-862): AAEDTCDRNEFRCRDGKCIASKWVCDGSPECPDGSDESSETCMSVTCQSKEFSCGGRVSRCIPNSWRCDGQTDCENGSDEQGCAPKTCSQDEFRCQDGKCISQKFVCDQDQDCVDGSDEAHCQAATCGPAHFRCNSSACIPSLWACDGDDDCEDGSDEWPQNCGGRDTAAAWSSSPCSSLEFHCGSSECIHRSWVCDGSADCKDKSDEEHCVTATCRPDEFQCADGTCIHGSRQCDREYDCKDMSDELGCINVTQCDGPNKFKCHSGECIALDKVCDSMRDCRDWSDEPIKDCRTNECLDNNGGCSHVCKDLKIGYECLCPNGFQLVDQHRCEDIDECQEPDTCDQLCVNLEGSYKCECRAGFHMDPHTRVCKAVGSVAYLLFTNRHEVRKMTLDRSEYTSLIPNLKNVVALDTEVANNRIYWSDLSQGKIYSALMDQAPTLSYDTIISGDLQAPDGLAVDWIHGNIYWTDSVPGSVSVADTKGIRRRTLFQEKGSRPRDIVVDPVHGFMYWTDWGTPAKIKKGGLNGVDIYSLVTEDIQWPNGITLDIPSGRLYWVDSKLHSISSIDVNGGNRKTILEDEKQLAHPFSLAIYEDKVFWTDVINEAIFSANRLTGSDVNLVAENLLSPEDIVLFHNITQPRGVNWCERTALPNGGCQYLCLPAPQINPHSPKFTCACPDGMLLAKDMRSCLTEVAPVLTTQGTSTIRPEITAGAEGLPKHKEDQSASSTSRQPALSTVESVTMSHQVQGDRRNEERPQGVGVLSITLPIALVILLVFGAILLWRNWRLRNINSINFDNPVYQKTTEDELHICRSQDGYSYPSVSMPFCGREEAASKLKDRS

- binding result [1]: binds
- binding result [2]: binds
- binding result [3]: binds
B1: anti-LDL-R 12G4 antibody (antibody, mouse IgG1, V domains shown)
VH: QIQLVQSGPELKKPGETVKISCKASGYTFTKYGMNWVKQAPGKGLKWMGWINTNTGEPTYAEEFKGRFAFSLETSASTAFLQINNLKNEDTATYFCSRGGYYDSYWGQGTLVTVSA
VL: DIVMSQSPSSLAVSVGEKVTMSCKSSQSLLYSSSQKNYLAWYQQKPGQSPKVLIYWASTRESGVPDRFTGSGSGTDFTLTISSVKAEDLAVYYCQQYYTYRTFGGGTKLEIK
notes: Murine IgG1 kappa purified from ascites of hybridoma H12G4; also called anti-LDL-R 12G4 antibodies; monoclonal antibody produced by the H12G4 hybridoma (CNCM I-3487)
